# Patent publication US5037646A, “Processes for the treatment of vascular disease” (Genentech, Inc., priority 1990, dated 1991)
# Several values for one entry are separate records, joined by “and”; a condition that tells them apart may be missing. Equal entries are not always repeated. Where two headings read alike, the source gives them in different places.
# Assays:
# [1] = In vitro protease amidolytic assay with S-2288 substrate; assay type: biochemical; conditions: S-2288, 23 nM protein, pH 7.4
# Method: The activity of des (1-44) t-PA in a protease amidolytic assay was compared to that of natural t-PA using the S-2288 paranitroanilide chromogenic substrate (Helena Labs). The S-2288 paranitroanilide substrate provides a direct measurement of protease amidolytic activity. The kinetic constants for t-PA and des 1-44 t-PA were determined with the S-2288 substrate using an H-P diode array spectrophotometer (HP8451-A). Hydrolysis of the substrate was measured continuously at two substrate concentrations (1.0 mM and 0.1 mM) while the protein concentrations were held constant at 23 nM in a buffer composed of 0.05M Tris-HCl, 0.12M NaCl, 0.01% Tween 80, pH 7.4. Using the differential form of the Michaelis-Menten equation and a non-linear regression the Km and Vmax were calculated from the curves of the progress of the reaction.
# plasminogen = experiment: In vitro plasminogen activation, two-stage assay with plasmin specific substrate S-2251; assay type: biochemical
# Method: The ability of t-PA to activate plasminogen can be measured in an in vitro assay by preincubating t-PA and plasminogen and then adding the plasmin specific substrate H-D-valyl-H-leucyl-H-lysine-p-nitronilide (S-2251). The maximum rate of this reaction is observed in the presence of fibrin(ogen) or fragments of fibrin(ogen) which act as stimulators of the reaction.
# The plasmin specific substrate S-2251 was used in a two-stage assay to measure the ability of the sample to activate plasminogen. Fibrin clots were made by incubating the sample with 0.02 ml of a 20 mg/ml fibrinogen solution with 1U of thrombin in a total volume of 0.12 ml of 0.05M Tris-HCl, 0.12M NaCl, 0.01% Tween 80, pH 7.4 for 30 min. at 37' C. Alternatively, the thrombin could be omitted and fibrinogen used as the stimulator. Glu-plasminogen solution, 0.03 ml of a 2.1 mg/ml solution, was then added. After 10 min at 37' C., 0.35 ml of 2.86 mM S-2251 in 0.037M Tris, 0.86 NaCl, 0.007% Tween 80, pH 7.4) were added. This mixture was incubated for five minutes then the reaction was stopped by the addition of 0.1 ml of 50% glacial acetic acid. Absorbance at 405 nm was measured. The activity was expressed as the change in absorbance per nanogram per minute in the presence of substrate.
# The stimulation is the ratio of the specific activity of the sample containing fibrin and the specific activity of the sample not containing fibrin.
# fibrin clot = experiment: In vitro fibrin clot lysis assay with saturating plasminogen; assay type: biochemical; conditions: t-PA = 1.0
# Source text: In order to further compare the ability of des 1-44 t-PA to activate plasminogen in the presence of fibrin(ogen), it was compared to t-PA in an assay which measures the ability of t-PA and saturating plasminogen to lyse a fibrin clot.
# [2] = Pharmacokinetics of I-125 labeled t-PA, i.v. bolus in rabbits; assay type: in vivo, rabbit; set-up: B0 / t1/2b / A0 / AUMC × 10^- 6: unit not given here; conditions: carrier 1 mg/kg cold rt-PA; for CL (clearance rate): natural t-PA
# Method: Comparative pharmacokinetic studies were performed in rabbits. I-125 labeled test t-PA, either wild type or N44 variant, 5 uCi/kg with a specific activity of 5 to 10 uCi/ug, and carrier wild type t-PA, 1.0 mg/kg, were coinjected, serial blood samples were collected, plasma prepared and the TCA (trichloroacetic acid) precipitable counts were determined at each time point. TCA precipitation was used in order to remove any small metabolites which appear at later times due to degradation of t-PA by the liver. The plasma concentration time curve for rt-PA was fit to a biexponential equation C-Aexp(-alphaXt)+Bexp(-betaXt). The curve for the des (1-44) rt-PA was fit to a monoexponential equation C-Aexp(-alphaXt). The clearance (Cl) was calculated by the formula Cl-DOSE/AUC, where AUC is the area under the plasma concentration time curve. […]
# [3] = rabbits; cited from earlier work
# [4] = monkeys; cited from earlier work
# [5] = cited from earlier work
# [6] = individual rabbits #A, #C, #E, #G
substance,measurement,setting,value
"natural t-PA: human tissue plasminogen activator, amino acids 1-527, whether obtained from natural or recombinant sources",kcat,[1],17.9 s⁻¹
same,Stim (stimulation: specific activity with / without),plasminogen; With Fibrin Clots,100
same,rel (relative activity),"plasminogen; With Fibrin Clots, relative to t-PA",100%
same,Stim (stimulation: specific activity with / without),plasminogen; With Fibrinogen,100
same,+Fgn rel (relative activity),"plasminogen; With Fibrinogen, relative to t-PA",100%
same,increase of activity in the presence of fibrin,plasminogen; in the presence of fibrin,about 50 fold
same,Clot lysis (relative units),fibrin clot,1.0 relative units
same,AUMC × 10^- 6,[2]; MEAN,601.493
same,VDSS,[2]; MEAN,0.213336 L/kg
same,t1/2b,[2]; MEAN,28.868
same,A0,"[2]; MEAN, biexponential fit",275201
same,B0,"[2]; MEAN, biexponential fit",30352.649
same,t1/2a,"[2]; MEAN, unit from b248, listed as rT-PA",3.067 min
same,t1/2a,"[2]; MEAN, unit from b248, listed as rt-PA",about 3.1 minutes
same,CL (clearance rate),"[2]; MEAN, listed as rT-PA",8.357 mL/min/kg
same,CL (clearance rate),"[2]; MEAN, listed as rt-PA",about 8.4 ml/min/kg
same,A0,[2]; [6],247990 and 306059 and 255904 and 290852
same,AUMC × 10^- 6,[2]; [6],789.510 and 452.925 and 637.710 and 525.828
same,B0,[2]; [6],30144.320 and 32920.033 and 27005.306 and 31340.936
same,CL,[2]; [6],7.063 mL/min/kg and 9.222 mL/min/kg and 8.567 mL/min/kg and 8.577 mL/min/kg
same,VDSS,[2]; [6],0.209553 L/kg and 0.197899 L/kg and 0.232427 L/kg and 0.213466 L/kg
same,t1/2a,[2]; [6],3.716 min and 2.645 min and 3.334 min and 2.575 min
same,t1/2b,[2]; [6],33.236 and 23.987 and 31.782 and 26.467
same,nominal half-life,[3],about 2 minutes
same,nominal half-life,[4],~3.5 min
same,t1/2b,[5]; beta phase,about 30 minutes
same,t1/2a,[5]; dominant alpha phase,about 2.2 minutes
same,t1/2a component,[5]; where Co=100,about 95%
same,t1/2b component,[5]; where Co=100,about 5%
